Experimental data from patent US20130209489A1 (Amgen, published 2013).

Columns and labels:
[1] = biological target: T1, Peptide P (chymotryptic peptide, antibody-protected Cys knot, dimer) (human); assay: BIAcore competition: 12A5-5 pre-incubated with the HPLC peptide fraction in solution, then passed over immobilized human myostatin; low response means the peptide binds the antibody
T1 construct: Formed when myostatin pre-incubated with 12A5-5 was digested with chymotrypsin
T1 chain 1: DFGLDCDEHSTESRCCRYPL
T1 chain 2: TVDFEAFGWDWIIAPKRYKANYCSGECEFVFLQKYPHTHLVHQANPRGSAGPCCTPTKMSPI
T1 chain 3: GKIPAMVVDRCGCS
Method: (§1) The strategy for characterizing the epitopes bound by anti-myostatin neutralizing monoclonal antibodies was to use various CNBr—, LysC— and chymotrypsin-generated human myostatin peptides and determine which peptides could be bound by the antibody. In one aspect, this was tested in a BIAcore® competition binding assay where the binding of 12A5-5 to human myostatin immobilized on a BIAcore® chip was determined in the presence or absence of each of the various isolated HPLC peptide fractions. In the absence of any competing peptides, 12A5-5 was able to bind the human myostatin on the chip and produce an RU (resonance unit) response. […] This general procedure was repeated individually for each peptide. […] These binding patterns, coupled with the known identity of the various myostatin peptides were used to determine which regions of myostatin were important (or necessary) for the binding of antibody 12A5-5.

[2] = biological target: T2, Peptide G (LysC peptide, Cys knot, dimer) (human); assay: as above
T2 construct: Four LysC peptides held together by disulfide bonds (cystine knot), dimeric through Cys73 (19.5 kD)
T2 chain 1: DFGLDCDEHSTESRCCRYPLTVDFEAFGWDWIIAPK
T2 chain 2: ANYCSGECEFVFLQK
T2 chain 3: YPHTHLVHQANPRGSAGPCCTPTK
T2 chain 4: IPAMVVDRCGCS
Method: as §1

mature human myostatin [3] = biological target: T3, mature human myostatin (human, UniProt O14793 267-375); assay: ratio of the affinities for GDF11 and myostatin
T3 construct: they are put on this molecule; also called GDF-8; recombinant mature myostatin

mature human myostatin [4] = biological target: T3, mature human myostatin; assay: cell-based or functional assay
promyostatin = promyostatin (UniProt O14793 24-375, limits assumed); assay: KinExA solution equilibrium assay, promyostatin-coated beads
Source text: Solution-based equilibrium-binding assays using KinExA® technology (Sapidyne Instruments, Inc.) are employed to determine the dissociation equilibrium (Kd) of myostatin binding to antibody molecules. This solution-based assay is considered to be more sensitive than the BIAcore® assay in some instances. Reacti-Gel 6×(a highly reactive, cross-linked 6% agarose bead for immobilization of amine-containing ligands; Thermo Scientific Pierce, Rockford, Ill.) is pre-coated with about 50 microG/ml myostatin overnight, and then blocked with bovine serum albumin (BSA; 1 mg/ml). Antibody samples (10 pM, and 30 pM) were incubated with various concentrations (0.5 pM to 5 nM) of myostatin in sample buffer containing 0.1 mg.ml BSA at room temperature for eight hours before being run through the myostatin-coated beads. The amount of the bead-bound antibody is quantified by fluorescent (Cy5) labeled goat anti-human-Fc antibody at 1 mg/ml in SuperBlock® (an optimized protein-based solution for blocking excess binding sites; Thermo Scientific Pierce, Rockford, Ill.). The binding signal is proportional to the concentration of free antibody at equilibrium with a given myostatin concentration. […]
A KinExA™ assay similar to the one previously described was run, using promyostatin instead of mature myostatin. […] The amount of the bead-bound antibody is quantified substantially as previously described.

mature human myostatin [5] = biological target: T3, mature human myostatin; assay: KinExA solution equilibrium assay, myostatin-coated beads
Source text: Solution-based equilibrium-binding assays using KinExA® technology (Sapidyne Instruments, Inc.) are employed to determine the dissociation equilibrium (Kd) of myostatin binding to antibody molecules. This solution-based assay is considered to be more sensitive than the BIAcore® assay in some instances. Reacti-Gel 6×(a highly reactive, cross-linked 6% agarose bead for immobilization of amine-containing ligands; Thermo Scientific Pierce, Rockford, Ill.) is pre-coated with about 50 microG/ml myostatin overnight, and then blocked with bovine serum albumin (BSA; 1 mg/ml). Antibody samples (10 pM, and 30 pM) were incubated with various concentrations (0.5 pM to 5 nM) of myostatin in sample buffer containing 0.1 mg.ml BSA at room temperature for eight hours before being run through the myostatin-coated beads. The amount of the bead-bound antibody is quantified by fluorescent (Cy5) labeled goat anti-human-Fc antibody at 1 mg/ml in SuperBlock® (an optimized protein-based solution for blocking excess binding sites; Thermo Scientific Pierce, Rockford, Ill.). The binding signal is proportional to the concentration of free antibody at equilibrium with a given myostatin concentration. Kd is obtained from the nonlinear regression of the competition curves using a dual-curve one-site homogeneous binding model provided in the KinExA™ software (Sapidyne Instruments, Inc.).

GDF11 = biological target: T4, GDF11 (UniProt O95390 299-407); assay: separate experiment, method not named (Biacore section)
T4 construct: also called growth and differentiation factor 11; BMP-11

mature human myostatin [6] = biological target: T3, mature human myostatin; assay: cell-based or functional assay; remark: listed apart in the source
[7] = biological target: T5, Peptide I (reduced LysC peptide, 55-78) (human); assay: BIAcore competition: 12A5-5 pre-incubated with the HPLC peptide fraction in solution, then passed over immobilized human myostatin
T5 construct: From TCEP reduction of peptide G
T5 peptide: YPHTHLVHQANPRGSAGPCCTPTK
Method: as §1

[8] = biological target: T6, Peptide F (LysC peptide, 79-90) (human); assay: as above
T6 peptide: MSPINMLYFNGK
Method: as §1

[9] = biological target: T7, Peptide J (reduced LysC peptide, 98-109) (human); assay: as above
T7 construct: From TCEP reduction of peptide G
T7 peptide: IPAMVVDRCGCS
Method: as §1

[10] = biological target: T8, Peptide H (reduced LysC peptide, 91-97) (human); assay: as above
T8 peptide: EQIIYGK
Method: as §1

[11] = biological target: T9, Peptide M (reduced LysC peptide, 1-36) (human); assay: as above
T9 construct: From TCEP reduction of peptide G
T9 peptide: T2 chain 1
Method: as §1

[12] = biological target: T10, Peptide B (CNBr peptide, 85-101) (human); assay: as above
T10 construct: both are this molecule; also called Peptide D; Reduced CNBr peptide
T10 peptide: LYFNGKEQIIYGKIPAM
Method: as §1

[13] = biological target: T11, Peptide K (reduced LysC peptide, 40-54) (human); assay: as above
T11 construct: From TCEP reduction of peptide G
T11 peptide: ANYCSGECEFVFLQK
Method: as §1

[14] = biological target: T12, Peptide N (chymotryptic peptide, Cys knot, dimer) (human); assay: as above
T12 chain 1: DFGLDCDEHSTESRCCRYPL
T12 chain 2: KANYCSGECEFVF
T12 chain 3: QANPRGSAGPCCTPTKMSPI
T12 chain 4: GKIPAMVVDRCGCS
Method: as §1

T4 sequence (O95390 299-407 limits assumed): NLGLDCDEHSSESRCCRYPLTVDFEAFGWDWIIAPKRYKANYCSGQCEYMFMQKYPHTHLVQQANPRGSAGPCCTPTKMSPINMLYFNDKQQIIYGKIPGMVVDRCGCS

B1: anti-myostatin neutralizing monoclonal antibody 12A5-5 (antibody, V domains shown)
VH: EVQLVESGGGLVQPGGSLRLSCAASGFTFSRYWMNWVRQAPGKGLEWVAQIRLKSDNYATHYAESVKGRFTISRDNAKNSLYLQMNSLRAEDTAVYYCTEGLDYWGQGTTVTVSS
VL: DIQMTQSPSSLSASVGDRVTITCKASQDINKYVAWYQQKPGKAPKLLIYYTSWLQPGVPSRFSGSGSGTDFTFTISSLQPEDIATYYCLQYDNLLYTFGQGTKLEIK
notes: in the KinExA assay it was detected with a goat anti-human-Fc antibody, so it carries a human Fc; also called Mab 12A5-5; MAb 12A5-5
In the case of B1, the binding result [1] is reported as “binds”, the binding result [2] is reported as “binds” and the “fold selectivity for myostatin over GDF11” value (mature human myostatin [3]) is reported as ~10000 fold. The “IC50 (nM), C2C12/pMARE luciferase reporter cell myostatin activity assay” value (mature human myostatin [4]) was 1.85 nM, the Kd (promyostatin) was ~0.002 nM and the Kd (mature human myostatin [5]) was ~0.002 nM. For the same binder, the Kd (GDF11) was ~180 nM, the “Cell Assay (IC50), inhibition of myostatin activity” value (mature human myostatin [6]) was 1.2 nM and the binding result [7] was “no binding (tested: peptide concentration not printed)”. B1: no binding (tested: peptide concentration not printed) [8]; no binding (tested: peptide concentration not printed) [9]; no binding (tested: peptide concentration not printed) [10]. B1: no binding (tested: peptide concentration not printed) [11]; no binding (tested: peptide concentration not printed) [12]; no binding (tested: peptide concentration not printed) [13]. B1: no binding (tested: peptide concentration not printed) [14].
